To fix the notation:
B1: CPEB3 Ribozyme (parent)
chain: GGGGGCCACAGCAGAAGCGUUCACGUCGCGGCCCCUGUCAGAUUCUGGUGAAUCUGCGAAUUCUGCUGU

This is an account of results in the RNAGym collection of RNA variant scans (doi:10.7554/elife.80360).

In the series the parent is B1. The experiment in a line: self-cleavage, relative activity (ratio to wild type); higher = more cleavage; co-transcriptional.
In the case of C34G C57G, the self-cleavage came to 0.332.
Then C33U U46A, with 0.98.
The result for C33U U46C reads 0.977; that for C33U U46G, 0.979; that for C34A C66G, 0.667.
Then C34A C66U, with 0.874; and C33U G50C, with 1.
Consider C33U G50A, for which the self-cleavage came out at 0.979.
The result for C34A G48C reads 0.857.
C34A G48U: the self-cleavage was found to be 0.877.
Then C33U A40G, with 0.952; and C33U A40U, with 0.906; and C33U A40C, with 0.619.
In the case of C34A A42C, the self-cleavage was found to be 0.46.
As for C33U U64C, the self-cleavage was determined as 0.92.
For the variant C33U U64A, the self-cleavage stood at 0.919.
On to C33U U64G, for which the self-cleavage was 0.941.
With C34A C63A, the self-cleavage is 0.495.
Then C34A C63U, with 0.817; and C34A C63G, with 0.411; and C33U G37A, with 0.265.
Then C33U G37C, with 0.242; and C33U U67A, with 0.971; and C33U U67G, with 0.982.
In the case of C34A C57U, the self-cleavage is 0.285.
For the variant C34A C57A, the self-cleavage is 0.255.
Then C34A C57G, with 0.285.
For C33U G47A, the self-cleavage came to 0.972.
Then C33U G47C, with 0.969.
Then C33U G47U, with 0.985; and C34A G50U, with 0.8.
The result for C34G C35U reads 0.29; that for C34G C35G, 0.244; that for C34G C35A, 0.196.
With C34G C54U, the self-cleavage is 0.708.
On to C34G C54G, for which the self-cleavage was 0.343.
Then C34G C54A, with 0.368; and C33U U43G, with 0.678; and C33U U43A, with 0.915.
Then C33U A42U, with 0.953; and C33U A42G, with 0.916.
The result for C33U A42C reads 0.793.
For the variant C34G A52U, the self-cleavage is 0.661.
Then C33U A52C, with 0.978; and C34A C35G, with 0.177; and C34A C35U, with 0.226.
With C33U G48C, the self-cleavage was determined as 0.998.
Then C33U G48U, with 1.03; and C33U G48A, with 1; and C34A U64C, with 0.728.
The result for C34A U64A reads 0.794; that for C34G A40C, 0.326; that for C34G A40G, 0.631.
Then C34G A40U, with 0.417.
As for C34A U49C, the self-cleavage is 0.79.
The result for C34A U49A reads 0.867; that for C33U A51C, 0.948; that for C33U A51G, 0.922.
The result for C33U A51U reads 0.963.
Turning to C34A A40U, the self-cleavage amounted to 0.468.
Then C34A A40G, with 0.788; and C34A G68U, with 0.956; and C34A G68C, with 0.954.
The result for C34A G68A reads 0.935; that for C34A U36A, 0.229.
The result for C33U U36G reads 0.295; that for C33U U36C, 0.874.
With C34A A51G, the self-cleavage was 0.469.
Regarding C34A U61C, the self-cleavage was 0.432.
Then C34A U61A, with 0.466.
The result for C33U G41U reads 0.821.
Then C33U G41C, with 0.728; and C33U C39A, with 0.866.
As to C34A G65A, the self-cleavage came to 0.617.
Take C34A G65U: the self-cleavage was determined as 0.57.
The result for C34A U69A reads 0.971; that for C34A U69G, 0.947.
Then C33U G65U, with 0.749; and C34G A59U, with 0.234.
The result for C34G A59G reads 0.538; that for C34A U46G, 0.843.
Turning to C34G C45G, the self-cleavage stood at 0.604.
With C34G C45A, the self-cleavage is 0.641.
Then C34G C45U, with 0.746.
The result for C34G C63G reads 0.338; that for C34A U55C, 0.264.
Then C34A U55G, with 0.357; and C33U A59G, with 0.959.
In the case of C33U A59C, the self-cleavage stood at 0.706.
The result for C33U A59U reads 0.8; that for C33U C34U, 0.825.
C33U C34A: the self-cleavage worked out at 0.413.
Then C34A A59U, with 0.436; and C34A A59G, with 0.609.
Then C33U U61G, with 0.82; and C33U U61C, with 0.913.
Turning to C33U U61A, the self-cleavage was found to be 0.905.
The result for C34A U62A reads 0.602; that for C34A U62C, 0.358; that for C34A U62G, 0.434.
The result for C33U C54U reads 0.949; that for C34A C54U, 0.69.
The result for C33G U64A reads 0.638.
C33G U64C: the self-cleavage is 0.484.
Then C33G U64G, with 0.395; and C34A U44C, with 0.724; and C34A U44G, with 0.526.
The result for C34G A51C reads 0.504; that for C34G A51G, 0.625; that for C34G A51U, 0.671.
Then C34A C45U, with 0.798; and C33G U62G, with 0.374; and C33U C45G, with 0.98.
On to C33U C45A, for which the self-cleavage is 0.987.
Then C34A G47U, with 0.914.
Then C34A G47C, with 0.887; and C34A G47A, with 0.915; and C33U U49A, with 0.97.
Then C33U U49C, with 1.02; and C33U U49G, with 0.996; and C33U U38G, with 0.215.
With C33U U38C, the self-cleavage is 0.899.
Then C34G C39A, with 0.394.
The result for C33G U69G reads 0.899; that for C33G U69A, 0.82; that for C33U A60G, 0.814.
Then C33U A60U, with 0.505; and C33U U55A, with 0.965.
As for C34A G37A, the self-cleavage came to 0.301.
Then C34A G37U, with 0.26; and C34A G58A, with 0.656; and C34A U53A, with 0.409.
Then C34A U53G, with 0.331; and C34A U53C, with 0.565; and C34A C39G, with 0.538.
Then C34A C39U, with 0.467.
Turning to C33U C57U, the self-cleavage was 0.345.
For the variant C33U C66G, the self-cleavage amounted to 0.921.
The result for C33U C63A reads 0.795.
Then C33U C63G, with 0.82.
The result for C33U C63U reads 0.936; that for C33G U67C, 0.777; that for C34A G41A, 0.341.
As to C34A G41U, the self-cleavage came to 0.339.
Then C34A G41C, with 0.33.
Then C33U U53G, with 0.727.
The result for C33U U53A reads 0.932; that for C33U U53C, 0.861; that for C34G A42C, 0.317.
Take C34A U43A: the self-cleavage is 0.514.
Then C34A U43G, with 0.479; and C34A G56C, with 0.438.
Then C34A G56U, with 0.679; and C33U C35G, with 0.396; and C33U C35U, with 0.884.
The result for C34A reads 0.869; that for C34G, 0.74.
As for C33U U69C, the self-cleavage is 1.05.
Regarding C33U U69A, the self-cleavage was determined as 1.01.
For the variant C33U U69G, the self-cleavage was 1.06.
With C33U G68C, the self-cleavage came out at 1.02.
The result for C33U U44G reads 0.945; that for C33U G56C, 0.849; that for C33U G56U, 0.963.
Then C33U G56A, with 0.949; and C34A A52C, with 0.597; and C34A A52G, with 0.497.
